{
  "source": "paper PMC6220203",
  "about": "“Cellular signaling and gene expression profiles evoked by a bivalent macrocyclic peptide that serves as an artificial MET receptor agonist” (Scientific Reports, 2018)",
  "molecular_target": "MET receptor (endogenous, on EHMES-1 cells) (human (endogenous in EHMES-1)) (UniProt P08581)",
  "data": [
    {"substance": "MET receptor (endogenous, on EHMES-1 cells) (from UniProt P08581 25-1390)", "values": [
      {"measurement": "MET receptor Tyr1234/1235 phosphorylation (cell-based enzyme-linked immunosorbent assay) in EHMES-1 cells against the concentration of aMD5-PEG11; bell-shaped profile", "value": 120, "unit": "nM"}
    ]}
  ]
}
